# Data published in publication PMC6992785, “In cellulo crystallization of Trypanosoma brucei IMP dehydrogenase enables the identification of genuine co-factors” (Nature Communications, 2020).
# Molecular target: the molecule itself
# Test: crystal structure; serial femtosecond crystallography (XFEL, LCLS CXI) at room temperature (291 K) on crystals grown in living Sf9 cells, isolated and kept in PBS; 2.80 Å; space group P4 21 2, two monomers in the asymmetric unit; native ATP and GMP bound
protein,measurement,value
"Trypanosoma brucei inosine-5'-monophosphate dehydrogenase (enzyme, UniProt P50098 1-512, looked up, Inosine-5'-monophosphate dehydrogenase of Trypanosoma brucei, full length, with its native C-terminal SKL motif (PTS1); Two monomers in the asymmetric unit; the octamer arises by crystal symmetry; also called TbIMPDH; IMPDH; source: Sf9 insect cells infected with recombinant baculovirus; crystallised in cellulo, crystals isolated by cell lysis (RIPA buffer), washed and stored in PBS; not shown: …) MENTNLRTKTLRDGTTAEELFSQDGLSFNDFIILPGFIDFDSSKVNVSGQFTKNILLHLPLVSSPMDTVTESSMARAMALMGGIGVIHNNCTVEQQARMVRSVKLYRNGFIMKPKSVSPDVPVSTIRNIKSEKGISGILVTEGGKYDGKLLGIVCTKDIDFVKDASAPVSQYMTRRENMTVERYPIKLEEAMDVLNRSRHGYLPVLNDKDEVVCLCSRRDAVRARDYPNSSLDRNGHLLCAAATSTREADKGRVAALSEAGIDVLVLDSSQGNTIYQVSFIRWVKKTYPHLEVVAGNVVTQDQAKNLIDAGADSLRIGMGSGSICITQEVLACGRPQATAIYKVARYAASRGVPCVADGGLRNVGDVCKALAVGANVAMLGSMIAGTSETPGEYFFKDGMRLKGYRGMGSIDAMLQGRESGKRYLSENETLQVAQGVAGAVLDKGSVLKLLAYIHKGLQQSAQDIGEVSFDAIREKVYEGQVLFNRRTLTAQSEGAVHSLHHYERKLFASKL",stoichiometry N,8
